Experimental data as given in the supplement of paper PMC9112550, “Optimization of the antimicrobial peptide Bac7 by deep mutational scanning” (BMC Biology, 2022).

Test system: Escherichia coli TOP10
Experiment: shrunken log2 fold change of peptide-encoding DNA abundance (4.5 h post-induction vs induction); higher = less antimicrobial activity (less host growth inhibition)
Details: time post-induction: 4.5 h; library: site-saturation at positions 5, 18, 19, 20
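Also: peptides expressed intracellularly from a pBAD plasmid library in pooled LB shake-flask culture, induced with 0.3% L-arabinose, DNA abundance read by NGS, three biological replicates, DESeq2 with apeglm shrinkage.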

Sequence | shrunken log2 fold change
RRIRKRPPRLPRPRPRPFCHPRP | 0.00474
RRIRERPPRLPRPRPRPAIQPRP | -0.337
RRIRERPPRLPRPRPRPMWFPRP | -0.159
RRIRFRPPRLPRPRPRPHQFPRP | -0.343
RRIRNRPPRLPRPRPRPFLIPRP | 0.117
RRIRPRPPRLPRPRPRPCNGPRP | -0.202
RRIRGRPPRLPRPRPRPRQGPRP | 0.654
RRIRMRPPRLPRPRPRPPYEPRP | 0.0457
RRIRERPPRLPRPRPRPDTIPRP | -0.06
RRIRVRPPRLPRPRPRPDLRPRP | -0.0613
RRIRVRPPRLPRPRPRPNPSPRP | 0.0073
RRIRHRPPRLPRPRPRPSLQPRP | -0.0974
RRIRKRPPRLPRPRPRPRLQPRP | 0.475
RRIRMRPPRLPRPRPRPATFPRP | 0.376
RRIRRRPPRLPRPRPRPVENPRP | 0.0788
RRIRDRPPRLPRPRPRPKWWPRP | 0.00489
RRIRSRPPRLPRPRPRPAPIPRP | 0.133
RRIRNRPPRLPRPRPRPMYNPRP | -0.693
RRIRTRPPRLPRPRPRPKRQPRP | 0.562
RRIRMRPPRLPRPRPRPAEYPRP | 0.0354
RRIRHRPPRLPRPRPRPDWGPRP | 0.0592
RRIRKRPPRLPRPRPRPHWKPRP | -0.00804
RRIRYRPPRLPRPRPRPVAEPRP | -0.0801
RRIRTRPPRLPRPRPRPELSPRP | -0.0448
RRIRLRPPRLPRPRPRPDCWPRP | 0.362

Sequence | shrunken log2 fold change
RRIRQRPPRLPRPRPRPHGIPRP | 0.179
RRIRLRPPRLPRPRPRPEIIPRP | 0.179
RRIRGRPPRLPRPRPRPGMQPRP | 1.15
RRIRERPPRLPRPRPRPYIFPRP | -0.15
RRIRTRPPRLPRPRPRPIYNPRP | -0.254
RRIRRRPPRLPRPRPRPRLWPRP | 0.273
RRIRERPPRLPRPRPRPLTMPRP | -0.308
RRIRGRPPRLPRPRPRPDQLPRP | 0.719
RRIRGRPPRLPRPRPRPEEYPRP | 0.0595
RRIRPRPPRLPRPRPRPDRWPRP | 0.219
RRIRYRPPRLPRPRPRPLISPRP | -0.596
RRIRLRPPRLPRPRPRPTHYPRP | -0.18
RRIRRRPPRLPRPRPRPGESPRP | 0.0142
RRIRTRPPRLPRPRPRPINVPRP | -0.509
RRIRHRPPRLPRPRPRPDREPRP | 0.0062
RRIRGRPPRLPRPRPRPHAAPRP | 1.47
RRIRTRPPRLPRPRPRPWWIPRP | -0.869
RRIRFRPPRLPRPRPRPRIMPRP | -0.624
RRIRLRPPRLPRPRPRPWFSPRP | -0.225
RRIRERPPRLPRPRPRPVDRPRP | 0.0364
RRIRIRPPRLPRPRPRPCSRPRP | -0.139
RRIRFRPPRLPRPRPRPRAPPRP | 0.821
RRIRNRPPRLPRPRPRPKYMPRP | -0.854
RRIRTRPPRLPRPRPRPELGPRP | 0.248
RRIRLRPPRLPRPRPRPHREPRP | -0.969

Sequence | shrunken log2 fold change
RRIRTRPPRLPRPRPRPIMLPRP | -0.32
RRIRQRPPRLPRPRPRPAYNPRP | 0.018
RRIRQRPPRLPRPRPRPKDVPRP | 0.00879
RRIRFRPPRLPRPRPRPIYVPRP | -0.871
RRIRLRPPRLPRPRPRPSWAPRP | -0.098
RRIRERPPRLPRPRPRPPPIPRP | 0.267
RRIRRRPPRLPRPRPRPPAWPRP | 0.919
RRIRHRPPRLPRPRPRPGTRPRP | -0.13
RRIRHRPPRLPRPRPRPCYCPRP | -0.617
RRIRIRPPRLPRPRPRPHRFPRP | -0.62
RRIRMRPPRLPRPRPRPTPMPRP | 0.981
RRIRIRPPRLPRPRPRPDEWPRP | -0.0975
RRIRARPPRLPRPRPRPLCGPRP | 0.467
RRIRRRPPRLPRPRPRPMWEPRP | 0.00178
RRIRFRPPRLPRPRPRPSFDPRP | -0.62
RRIRFRPPRLPRPRPRPPTSPRP | 0.403
RRIRKRPPRLPRPRPRPPPEPRP | 1.32
RRIRLRPPRLPRPRPRPFKEPRP | -0.169
RRIRRRPPRLPRPRPRPVRIPRP | -0.00526
RRIRDRPPRLPRPRPRPLNMPRP | 0.111
RRIRSRPPRLPRPRPRPAQLPRP | -0.142
RRIRERPPRLPRPRPRPAADPRP | 0.127
RRIRQRPPRLPRPRPRPDNHPRP | -0.35
RRIRHRPPRLPRPRPRPCASPRP | -0.028
RRIRRRPPRLPRPRPRPIKDPRP | -0.0902

Sequence | shrunken log2 fold change
RRIRSRPPRLPRPRPRPSMAPRP | 0.223
RRIRVRPPRLPRPRPRPMKWPRP | -0.068
RRIRQRPPRLPRPRPRPIWCPRP | -0.0171
RRIRSRPPRLPRPRPRPHLCPRP | -0.121
RRIRMRPPRLPRPRPRPNCTPRP | -0.15
RRIRLRPPRLPRPRPRPWCKPRP | -0.213
RRIRGRPPRLPRPRPRPTNKPRP | 0.242
RRIRCRPPRLPRPRPRPTTWPRP | -0.125
RRIRNRPPRLPRPRPRPESFPRP | -0.0337
RRIRWRPPRLPRPRPRPMEPPRP | 0.0539
RRIRTRPPRLPRPRPRPHICPRP | -0.13
RRIRVRPPRLPRPRPRPSNNPRP | -0.662
RRIRARPPRLPRPRPRPPIYPRP | 0.0905
RRIRRRPPRLPRPRPRPPDEPRP | 0.726
RRIRWRPPRLPRPRPRPELIPRP | 1.56
RRIRCRPPRLPRPRPRPGKIPRP | -0.399
RRIRERPPRLPRPRPRPGIEPRP | 0.00615
RRIRTRPPRLPRPRPRPRLHPRP | 0.0546
RRIRLRPPRLPRPRPRPTGCPRP | 0.19
RRIRYRPPRLPRPRPRPMLQPRP | -0.229
RRIRSRPPRLPRPRPRPFNQPRP | -0.295
RRIRQRPPRLPRPRPRPFLHPRP | 0.0118
RRIRSRPPRLPRPRPRPQYHPRP | -0.9
RRIRLRPPRLPRPRPRPCQVPRP | -0.128
RRIRIRPPRLPRPRPRPLNSPRP | -0.652

Sequence | shrunken log2 fold change
RRIRLRPPRLPRPRPRPAPMPRP | 0.118
RRIRDRPPRLPRPRPRPTHLPRP | -0.175
RRIRMRPPRLPRPRPRPKLHPRP | 0.325
RRIRWRPPRLPRPRPRPASFPRP | -0.0603
RRIRWRPPRLPRPRPRPWELPRP | -0.0481
RRIRERPPRLPRPRPRPSHRPRP | -0.0834
RRIRQRPPRLPRPRPRPNMDPRP | -0.225
RRIRVRPPRLPRPRPRPFFEPRP | 0.142
RRIRGRPPRLPRPRPRPLFWPRP | 0.544
RRIRLRPPRLPRPRPRPCFQPRP | -0.512
RRIRQRPPRLPRPRPRPLIHPRP | -0.708
RRIRQRPPRLPRPRPRPIMDPRP | -0.179
RRIRPRPPRLPRPRPRPTHTPRP | 0.13
RRIRDRPPRLPRPRPRPWECPRP | -0.0018
RRIRVRPPRLPRPRPRPMMTPRP | 0.0496
RRIRWRPPRLPRPRPRPQEAPRP | -0.00482
RRIRSRPPRLPRPRPRPHSYPRP | -0.171
RRIRTRPPRLPRPRPRPCIIPRP | -0.0804
RRIRCRPPRLPRPRPRPVMFPRP | -0.154
RRIRMRPPRLPRPRPRPSTLPRP | -0.239
RRIRWRPPRLPRPRPRPRISPRP | 0.305
RRIRYRPPRLPRPRPRPVMDPRP | -0.122
RRIRWRPPRLPRPRPRPQRVPRP | 2.3
RRIRCRPPRLPRPRPRPQTIPRP | -0.516
RRIRARPPRLPRPRPRPCPMPRP | -0.0338

Sequence | shrunken log2 fold change
RRIRRRPPRLPRPRPRPRLLPRP | 0.474
RRIRARPPRLPRPRPRPWGCPRP | 0.211
RRIRKRPPRLPRPRPRPMQAPRP | 1.15
RRIRARPPRLPRPRPRPCMCPRP | 0.118
RRIRNRPPRLPRPRPRPAIKPRP | -0.383
RRIRKRPPRLPRPRPRPTSQPRP | 0.149
RRIRIRPPRLPRPRPRPWMEPRP | -0.172
RRIRCRPPRLPRPRPRPKDDPRP | 0.146
RRIRTRPPRLPRPRPRPVVNPRP | 0.0198
RRIRWRPPRLPRPRPRPLSNPRP | -0.252
RRIRQRPPRLPRPRPRPCAIPRP | -0.0067
RRIRFRPPRLPRPRPRPIRWPRP | 0.0239
RRIRMRPPRLPRPRPRPGTPPRP | 1.02
RRIRLRPPRLPRPRPRPKHMPRP | -0.0682
RRIRIRPPRLPRPRPRPHFMPRP | -0.685
RRIRNRPPRLPRPRPRPECPPRP | 0.012
RRIRFRPPRLPRPRPRPKTWPRP | 0.157
RRIRHRPPRLPRPRPRPKTYPRP | -1.51
RRIRARPPRLPRPRPRPDYYPRP | -0.135
RRIRGRPPRLPRPRPRPPTAPRP | 1.01
RRIRWRPPRLPRPRPRPTGCPRP | 0.141
RRIRLRPPRLPRPRPRPCSCPRP | 0.00383
RRIRCRPPRLPRPRPRPWMNPRP | 0.0105
RRIRYRPPRLPRPRPRPSGRPRP | -0.261
RRIRFRPPRLPRPRPRPDKNPRP | -0.413
